Data taken from PMC9493007.
Values joined by “and” are separate entries in the source; they are usually repeats but may differ in a detail not shown here. Equal entries are not always repeated.

How the values were obtained:
[1] = molecular target: YsaN wild type full length (untagged) (Yersinia enterocolitica 8081); test: SEC; analytical Superdex 200 HR 10/30; about 10 µM protein pre-incubated with 1.5 mM ADP and 1.5 mM AlCl3 (ADP.AlFX); 50 mM Tris pH 8.0, 100 mM KCl, 4 mM MgCl2, 5 mM NaF, 1 mM DTT, 5% glycerol; 0.5 ml/min, room temperature; apparent molecular weight from a standard curve
[2] = molecular target: YsaN∆83 (Yersinia enterocolitica 8081); test: negative-stain TEM
[3] = molecular target: YsaN∆83 (Yersinia enterocolitica 8081); test: SEC; analytical Superdex 200 HR 10/30; about 10 µM protein pre-incubated with 1.5 mM ADP and 1.5 mM AlCl3 (ADP.AlFX); 50 mM Tris pH 8.0, 100 mM KCl, 4 mM MgCl2, 5 mM NaF, 1 mM DTT, 5% glycerol; 0.5 ml/min, room temperature; apparent molecular weight from a standard curve

Substance | stoichiometry N [1] | stoichiometry N [2] | stoichiometry N [3]
YsaN wild type full length (untagged) (enzyme) | 6 and 12 | – | –
YsaN∆83 (domain or fragment) | – | 6 | 6
